Source: US20250382354A1
Substitutions are numbered along the chain they refer to.

B1: fp.010 (antibody, V domains shown)
VH: EVQLLESGGGLVQPGGSLRLSCAASGFTFSTYAMNWVRQAPGKGLEWVSAISSSGLSTQYADSVRGRFTISRDTSKNTLYLHMNSLRAGDTAVYYCAKVEYSGYDPRGPFDSWGQGTLVTVSS
VL: DIQMTQSPSTLSASVGDRVTITCRASQSISGWLAWYQQKPGRAPKLLIYKASSLERGVPSRFSGSGSGTEFTLTISSLQPDDFATYYCQEYSSYPLCTFGQGTKLEIK
B2: fp.011 (antibody, V domains shown)
VH: EVQLLESGGGLVQPGGSLRLSCAGSGFTFNNYAMTWVRQAPGRGLEWVSAISGSGGSSHYADSVKGRFTITRDNSKNTLYLQMNSLRAEDTAVYYCAFIDYYSGWSYYYGLDVWGQGTTVTVSS
VL: EIVLTQSPATLSLSPGERATLSCRASQGVRTYVAWYQQKPGQAPRLLIYDASNRATGIPARFSGSGSGTDFTLTISSLEPEDFAVYYCQQRYNWPLCSFGQGTKLEIK
B3: fp.008 (antibody, V domains shown)
VH: VQLVESGGGVVQPGRSLRLSCRASGFRFNNYAMHWVRQAPGKGLEWVAIISYEARNEKYAASVKGRFSISRDNAKNTLYLQMNSLRPEDTAIYYCARDVFLSDYDQSGYDVTRGGFDYWGQGTLVTVSS
VL: EIVMTQSPATLSVSPGESATLSCRASQSVSSSLAWYQHKFGQAPRLLIYGASTRATGIPDRFSGSGSGMEFTLTISSLQSEDVAIYYCQQYGDWPLVTFGGGTKVEIK
B4: fp.001 (antibody, V domains shown)
VH: VQLVESGGGVVQPGRPLRLSCSGSGFIFSNYAMHWVRQAPGKGLEWVAIISFDARNKRYADSVEGRFTISRDNSKNILYLQMNSLRLEDSAVYFCARDLFLSDYDNGVYDPTRGGFDYWGQGTLVTVSS
VL: EIVMTQSPATLSLSPGERATLSCRASQSVNNRLAWYQQKLGQPPRLLISGASTRATGIPARFTGSGSGTEFTLTISSLQSEDFAVYYCQQYHDWPLLSFGGGTKVEIK
B5: hr2.017 (antibody, V domains shown)
VH: EVQLVESGGGLVQPGGSLRLSCAVSGFAFSSSWMHWIRQAPGRGLVWVSRINRDGSTTDYADSVKGRFTISRDNAKATLYLQMNSLRAEDTAVYYCATMGFDYWGQGALVTVSS
VL: DIVMTQSPDSLAVSLGERATINCKSSQNVLYSSNNKNHLSWYQQKPGQPPKLLIYWASTRKSGVPDRFSGSGSGTDFTLTINSLQAEDVAVYYCQQYFSTPNTFGQGTKLEIK
B6: hr2.021 (antibody, V domains shown)
VH: QVQLVQSGAEVKKPGASVKVSCKASEAIFSGSYLHWVRQAPGQGLEWMGIITPSGDKTFYAQRFQGRLTMTRDTSTNTLHMHLSGLNSEDTAMYYCARQADKGGWDYWGQGTLVTVSS
VL: EIVLTQSPGTLSLSPGERATLSCRASQSVTSNYVAWYQQKPGQAPRLLIYGASTRATGIPDRFSGGGSGTDFTLTITRLEPEDFAVYYCQQYGSSPPTFTFGPGTKVDIK
B7: hr2.023 (antibody, V domains shown)
VH: QVQLVQSGAEVKKPGASVKVSCRASENIFSDSYLHWVRQAPGQGLEWMGIITPSGDKTFYAQQFQGRLTMTRDTPTNTLHMDLRGLTSADTAIYYCARQATKGGWDYWGQGTLVTVSS
VL: B6 VL with R18S, S31R, V34L, K40Q, T54N, I59V, G66S, T77S, T100I
B8: hr2.024 (antibody, V domains shown)
VH: QVQLVQSGAEVKKPGASVKVSCKASEDIFTDSYLHWVRQAPGQGLEWMGIITPSGDKTFYAQQFQGRLTMTRDPSTNTLYMFLSGLRSDDTAMYFCARQAEKGGWDYWGHGTLVTVSS
VL: B6 VL with E17Q, A25S, S28T, V29I, V34L, K40R, T54I, G66S, T77S, T100I
B9: hr2.012 (antibody, V domains shown)
VH: QVQLVQSGAEVKKPGASVKVSCKASGYTFTSHYIHWVRQAPGQGLEWMGIIKPSGGNTIYAQTFQGRVTMTRDTSTSTVYMELRSLTSDDTAVYYCARDQDHGLQRWGQGTLVTVSS
VL: QSVLTQPPSVSAPPGQKVTISCSGSSSNIGNNFVSWYQQLPGTAPKLLIYDNIERPSGIPDRFSGSRSGTSATLGITGLQTGDEADYYCGTWDTSLGAWVFGGGTKVTVL
B10: hr2.013 (antibody, V domains shown)
VH: QVQLVQSGAEVKKPGASVKISCKASGYTFTNNYMNWVRQAPGQGLEWMGIIKPSSGSTIYAHKFQGRVTMTRDTSTSTVYMEVRSLTSEDTAVYYCARDQDHGLQNWGQGTLVTVSS
VL: B9 VL with P13A, P14S, S21Y, G30A, N31S, L40F, I53N, E54Q, V107L
B11: hr2.016 (antibody, V domains shown)
VH: EVQLLESGGGLVQPGGSLRLSCAASGFMFSKYAMTWVRQTPGKGLEWVSVISGGGGSTYYADSVKGRFTISRDNSKNTLYLQMNSLRAEDTAVYYCAKLLVVFVIDYWGQGALVTVSS
VL: EIVLTQSPGTLSLSPGERATLFCRASQSVSSNLAWYQQKPGRAPRLLISGASSRATGIPDRFSGSGSGTDFTLTISRLEPEDFAVYYCQQYGSSPPTFGQGTKVEIK
B12: hr2.086 (antibody, V domains shown)
VH: EVQLLESGGGLVQPGGYLRLSCAASGFTFSSYAMSWVRQAPGKGLEWVSVISGGGGSAYYADSVKGRFTISRDNSKNTLYLQMNSLRAEDTAVYYCAKIGMILVFDYWGQGTLVTVSS
VL: EIVLTQSPGTLSLSPGERATLSCRASQSVSNNYLAWYQQKPGQAPRLLISGASSRATGIPDRFSGSGSGTDFTLTISRLEPEDFAVYYCQQYGSSPPTFGQGTKVEIK
B13: hr2.090 (antibody, V domains shown)
VH: EVQLLESGGGLVQPGGSLRLSCAASGVTFSRYAMSWVRQAPGKGLEWVSTISGGGGGTYYADSVKGRFTISRDNSKNTLYLQMNSLRAEDTAVYYCATLLTVPGPYYFEYWGQGTLVTVSS
VL: EIVLTQSPGTLSLSPGERATLSCRASQSVSSSYLAWYQQKPGQAPRLLIYGASSRATGIPDRFSGSGSGTDFTLTISRLESEDFAVYYCQHSRFTFGPGTRVDIK
B14: hr2.018 (antibody, V domains shown)
VH: EVQLVESGGGLVKPGGSLRLSCVASGSSVIDAWMNWVRQAPGKGLEWVGRIKSKTNGATTDYAAPVKGRFTISRDDSKNLSYLQMNSLKTEDTGIYYCTTSPLPNFDYWGRGTLVTVSS
VL: not shown
B15: hr2.019 (antibody, V domains shown)
VH: B14 VH with V23A, A32V, S53T, T55A, N56S, T59A, A63G, K89R, T90A
VL: DIVMTQSPDFLAVSLGETATINCRSSQSVFYFANNKNYLAWYQQKPGQPPKLLIYWASKRESGVPDRFSGSGSGTDFTLTISSLQAEDVATYYCQQYSSPAITFGPGTKVDIK
B16: hr2.014 (antibody, V domains shown)
VH: QVQLVQSGAEVKKPGASVKVSCKASGYTFTTYAVHWLRQVPGQRPEWIGWINAANGNTKYSEKFQGRVTITRDTSASTAYMDLRSLRSEDTAVYYCARLLVVRDDPYYYGMDVWGQGTTVTVSS
VL: not shown
B17: hr2.020 (antibody, V domains shown)
VH: EVQLVQSGAEVKKPGESLKISCKGSGYRFASHWIGWVRQMPGKGLQWMGIIYPGDSDTKYSPSFQGQVTISADKSINTVYLHWTSLKASDTAVYYCARRPPHLDGGDSPIRFDHWGQGTLVTVSS
VL: QSVLTQPPSASGTPGQRVTISCSGSRSNIGSNDVYWYQQFPGTAPKLLIYRNNQRPSGVPDRFSGSKSGTSASLAISGLRSEDEADYYCATWDDRLTGVFGGGTKLTVV

Biological target: 229E FP peptide (229E)
Assay: peptide ELISA

Binder	EC50
B1	0.135 µg/mL
B2	0.0503 µg/mL
B3	0.019 µg/mL
B4	0.0232 µg/mL

Biological target: HKU1 FP peptide (HKU1)
Assay: peptide ELISA

Binder	EC50
B1	0.0372 µg/mL
B2	0.0197 µg/mL
B3	0.0219 µg/mL
B4	0.0298 µg/mL

Biological target: HKU4 HR2 peptide (HKU4), A3EX94
Assay: peptide ELISA

Binder	EC50
B5	0.0203 µg/mL
B6	0.021 µg/mL
B7	0.0149 µg/mL
B8	0.0184 µg/mL
B9	0.0184 µg/mL
B10	0.0181 µg/mL
B11	0.00744 µg/mL
B12	0.0269 µg/mL
B13	0.425 µg/mL
B14	0.0417 µg/mL
B15	0.0154 µg/mL
B16	0.0457 µg/mL
B17	0.0352 µg/mL

Biological target: HKU5 HR2 peptide (HKU5), A3EXD0
Assay: peptide ELISA

Binder	EC50
B5	0.0249 µg/mL
B6	0.0551 µg/mL
B7	0.0422 µg/mL
B8	0.048 µg/mL
B9	0.0204 µg/mL
B10	0.0292 µg/mL
B11	0.0256 µg/mL
B15	0.0505 µg/mL
B16	0.0312 µg/mL
B17	0.0631 µg/mL

Biological target: MERS FP peptide (MERS), K9N5Q8
Assay: peptide ELISA

Binder	EC50
B1	0.0593 µg/mL
B2	0.0363 µg/mL
B3	0.0361 µg/mL
B4	0.0369 µg/mL

Biological target: MHV HR2 peptide (MHV)
Assay: peptide ELISA

Binder	EC50
B5	0.02 µg/mL
B6	0.0333 µg/mL
B7	0.0106 µg/mL
B8	0.0259 µg/mL
B9	0.0177 µg/mL
B10	0.043 µg/mL
B11	0.0266 µg/mL
B13	0.761 µg/mL
B17	0.0285 µg/mL

Biological target: NL63 FP peptide (NL63), Q6Q1S2
Assay: peptide ELISA

Binder	EC50
B1	0.0451 µg/mL
B2	0.0261 µg/mL
B3	0.0226 µg/mL
B4	0.0214 µg/mL

Biological target: OC43 FP peptide (OC43), P36334
Assay: peptide ELISA

Binder	EC50
B1	0.0421 µg/mL
B2	0.0218 µg/mL
B3	0.0235 µg/mL
B4	0.0175 µg/mL

Biological target: SADS HR2 peptide (SADS)
Assay: peptide ELISA

Binder	EC50
B9	0.023 µg/mL
B10	0.042 µg/mL
B11	0.0738 µg/mL
B16	0.705 µg/mL

Biological target: SARS-CoV FP peptide (SARS-CoV), P59594
Assay: peptide ELISA

Binder	EC50
B2	0.023 µg/mL
B3	0.0267 µg/mL
B4	0.0289 µg/mL

Biological target: SARS-CoV-2 FP peptide (SARS-CoV-2)
Assay: peptide ELISA

Binder	EC50
B1	0.119 µg/mL
B2	0.0363 µg/mL
B3	0.0366 µg/mL
B4	0.0249 µg/mL

Biological target: SARS-CoV-2 HR2 peptide (SARS-CoV-2), P0DTC2
Assay: peptide ELISA

Binder	EC50
B5	0.0145 µg/mL
B6	0.0242 µg/mL
B7	0.0175 µg/mL
B8	0.106 µg/mL
B9	0.0196 µg/mL
B10	0.0317 µg/mL
B13	0.085 µg/mL
B14	0.0336 µg/mL
B15	0.0267 µg/mL
B16	0.0357 µg/mL
B17	0.0353 µg/mL
